One assay addresses CD47 (Homo sapiens) (UniProt Q08722). Conditions: cited from earlier work.
A further assay deals with ALX148 (human). In words: SPR; hFcRn flowed (0-5000 nM) over ALX proteins captured on a GLC chip with immobilised human CD47 ECD; 25°C; PBS pH 5.8, 0.01% Tween-20; equilibrium analysis; apparent. For orientation: In SPR one partner is held on a chip, and binding of the other changes the refractive index at the surface.

UniProt Q08722, sequence (Q08722 19-323): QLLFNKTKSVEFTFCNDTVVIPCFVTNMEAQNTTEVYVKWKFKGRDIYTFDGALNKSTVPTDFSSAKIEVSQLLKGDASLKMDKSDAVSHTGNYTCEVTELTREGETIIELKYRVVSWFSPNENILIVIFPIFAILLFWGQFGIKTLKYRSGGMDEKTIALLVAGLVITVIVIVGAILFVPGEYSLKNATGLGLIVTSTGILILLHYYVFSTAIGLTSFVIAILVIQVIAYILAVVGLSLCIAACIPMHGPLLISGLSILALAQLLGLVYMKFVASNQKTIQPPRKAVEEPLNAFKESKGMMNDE

Regarding SIRPα (from UniProt P78324), in the assay with CD47 (Homo sapiens), the Kd was 1000 nM.
In the case of “human neonatal Fc receptor (FcRn) (from UniProt P55899 24-297)”, in the assay with ALX148 (human), the Kd was 580 nM.

Source of the values: PMC6104973.
